Columns and labels:
[1] = system: T1, phosphoserine substrate peptide RRApSVA
T1 sequence: RRASVA

[2] = system: T2, phosphotyrosine substrate peptide ENDpYINASL
T2 sequence: ENDYINASL

[3] = molecular target: histone γH2A.X^pY142, endogenous in primary murine fibroblast cultures (UniProt P27661)

Substance: EYA1 isoform C (human splice variant EYA1C, exon 10 skipped)
- serine phosphatase activity (dephosphorylation assay) [1]: dephosphorylation assays using the synthetic serine phosphatase substrate RRApSVA demonstrated superior serine phosphatase activity

Substance: mutant EYA1C to which exon 10 had been added (EYA1C::e10)
- activity to dephosphorylate peptide ENDpYINASL [2]: overexpression of EYA1C::e10 phenocopied dephosphorylating efficacy and fibroblast accumulation of EYA1A
- γH2A.X^pY142 foci per nucleus after NCS exposure [3]: EYA1C containing exon 10 (EYA1C::e10) phenocopied EYA1A with regard to premature γH2A.X^pY142 dephosphorylation

— US20230024933
